Test results published in patent publication US20110244457A1.

What was measured:
human IL-8 (human) [1] = target: human IL-8 (human) (UniProt P10145); experiment: homogeneous immuno-SDA, 1,000 pM IL-8 in binding mixture, 1 nM Ab1-SA-P1 with 1 nM Ab2-P2 (G265-5-LHP-3) as second proximity member
human IL-8 (human) [2] = target: human IL-8 (human) (UniProt P10145); experiment: homogeneous immuno-SDA with tether oligonucleotide, 100 pM IL-8 in binding mixture, 1 nM Ab1-SA-TO plus RHP-3 with 1 nM Ab2-P2 (G265-5-LHP-3)
human IL-8 (human) [3] = target: human IL-8 (human) (UniProt P10145); experiment: homogeneous immuno-SDA with reversed probe RBD-3v3, 1.0 pM IL-8 in binding mixture, 20 pM Ab1-SA-P1 with 100 pM Ab2-P2 (G265-5-LHP-3), 50 nM blocker RDB-3z8
human IL-8 (human) [4] = target: human IL-8 (human) (UniProt P10145); experiment: homogeneous immuno-SDA, 10 pM IL-8 in binding mixture, 1 nM Ab1-SA-P1 with 1 nM Ab2-P2 (G265-5-LHP-3) as second proximity member; signal needs both antibodies on IL-8
human IL-8 (human) [5] = target: human IL-8 (human) (UniProt P10145); experiment: homogeneous immuno-SDA with tether oligonucleotide, 10 pM IL-8 in binding mixture, 1 nM Ab1-SA-TO plus RHP-3 with 1 nM Ab2-P2 (G265-5-LHP-3)
human IL-8 (human) [6] = target: human IL-8 (human) (UniProt P10145); experiment: homogeneous immuno-SDA, 100 pM IL-8 in binding mixture, 1 nM Ab1-SA-P1 with 1 nM Ab2-P2 (G265-5-LHP-3) as second proximity member
human IL-8 (human) [7] = target: human IL-8 (human) (UniProt P10145); experiment: homogeneous immuno-SDA with reversed probe RBD-3v3, 0.1 pM IL-8 in binding mixture, 20 pM Ab1-SA-P1 with 100 pM Ab2-P2 (G265-5-LHP-3), 50 nM blocker RDB-3z8
human IL-8 (human) [8] = target: human IL-8 (human) (UniProt P10145); experiment: homogeneous immuno-SDA with reversed probe RBD-3v3, 0.25 pM IL-8 in binding mixture, 20 pM Ab1-SA-P1 with 100 pM Ab2-P2 (G265-5-LHP-3), 50 nM blocker RDB-3z8
human IL-8 (human) [9] = target: human IL-8 (human) (UniProt P10145); experiment: homogeneous immuno-SDA with reversed probe RBD-3v3, 0.5 pM IL-8 in binding mixture, 20 pM Ab1-SA-P1 with 100 pM Ab2-P2 (G265-5-LHP-3), 50 nM blocker RDB-3z8

human IL-8 (human), sequence (P10145 28-99 limits assumed): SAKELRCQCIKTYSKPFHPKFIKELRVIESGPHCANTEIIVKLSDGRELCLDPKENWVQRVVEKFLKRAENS
MAb G265-8 (BD Bioscience Pharmingen), directed against human IL-8, covalently coupled to streptavidin (anti-IL-8 IgG-SA conjugate), sequence (P22629 37-163): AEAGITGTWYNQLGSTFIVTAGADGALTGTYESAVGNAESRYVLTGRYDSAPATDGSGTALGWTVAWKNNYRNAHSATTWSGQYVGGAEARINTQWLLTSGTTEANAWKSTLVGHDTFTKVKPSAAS

MAb G265-8 (BD Bioscience Pharmingen), directed against human IL-8, covalently coupled to streptavidin (anti-IL-8 IgG-SA conjugate) (from UniProt P22629 37-163) (antibody)
Average MOTA (n = 6) (human IL-8 (human) [1]): 129000 | Average MOTA (n = 6) (human IL-8 (human) [2]): 32200 | Average MOTA (n = 4) (human IL-8 (human) [3]): 129000 | Average MOTA (n = 6) (human IL-8 (human) [4]): 3980 | Average MOTA (n = 6) (human IL-8 (human) [5]): 505 | Average MOTA (n = 6) (human IL-8 (human) [6]): 73900 | Average MOTA (n = 4) (human IL-8 (human) [7]): 23100 | Average MOTA (n = 4) (human IL-8 (human) [8]): 81600 | Average MOTA (n = 4) (human IL-8 (human) [9]): 118000
